Experimental findings from patent US20170290886 are described below.

This data set concerns Recombinant GST-tagged MeCP2 protein (Prospec).

Turning to His-tagged PIAS1 protein, the “MeCP2 SUMOylation (in vitro SUMOylation assay with purified proteins)” value was “MeCP2 SUMOylation occurred when E1, E2, PIAS1 (the protein inhibitor of activated STAT1) and MeCP2 proteins were added”.
